The source of these data is PMC6268379, “Antifungal Activity of Homoaconitate and Homoisocitrate Analogs” (Molecules, 2012).

Substrate in series [1]: O=C(O)CC[C@H](C(=O)O)[C@@H](O)C(=O)O
The series is described as follows: Homoisocitrate dehydrogenase activity, NADH absorption at 340 nm. The format is biochemical. The conditions noted are these: other: recombinant C. albicans HIcDH; pH 7.8; 20.0 °C. On the procedure: (§1) Recombinant C. albicans homoaconitase (HA) and homoisocitrate dehydrogenase (HIcDH) containing oligoHis N-terminal tags were constructed and purified to near homogeneity as described earlier.
Reaction catalyzed by homoisocitrate dehydrogenase (HIcDH) was monitored by measuring the NADH absorption at 340 nm. The standard assay mixture contained 10 mM KCl, 5.0 mM MgCl2, 5 mM NAD^+ and 0.1 mM (2R,3S)-homoisocitrate in 50 mM Hepes-NaOH (pH 7.8) buffer. The reaction mixture with all required components except for the enzyme was preincubated for 3 min and the reaction was started by an addition of the recombinant His6-HIcDH (50 μg). The formation of NADH was measured for 30 s at 20 °C to determine initial reaction velocity. The initial rates were determined using a linear portion of the reaction progress curve.
(§2) The effects of novel compounds on the HA and HIcDH activity was determined by measuring the enzyme activity in standard assay mixtures containing various concentration of an inhibitor (0–10 mM). Inhibitory potential was expressed as IC50 values, i.e., concentrations causing 50% inhibition of enzyme activity in relation to control. All determinations were performed in triplicate.

Substrate in series [2]: O=C(O)CC[C@@](O)(CC(=O)O)C(=O)O
The series is described as follows: Homoaconitase activity, coupled reaction with HIcDH, NADH at 340 nm. The format is biochemical, Candida albicans. The conditions noted are these: other: recombinant C. albicans HA; pH 8.5; 20.0 °C. The procedure:
as §1
Activity of homoaconitase (HA) was measured by a coupled reaction with HIcDH by monitoring the reduction of NAD^+ to NADH at 340 nm. Reaction mixtures containing 50 mM Tris-HCl (pH 8.5), 50 mM KCl, 5 mM MgCl2, 20 mM dithiothreitol, 1 mM NAD^+ and 30 μg/mL of His6-HIcDH in a total volume of 0.9 mL were degassed under argon for 10 min, after which 0.05 mL of His6-HAC solution was added to a final concentration of 10 μg/mL. The reaction was initiated with addition of 0.05 mL of 50 mM (R)-homocitrate. The formation of NADH was measured for 30 s at 20 °C to determine initial reaction velocity. The initial rates were determined using a linear portion of the reaction progress curve.
as §2

B1: recombinant homoisocitrate dehydrogenase (HIcDH) (Candida albicans SC5314) (protein)
chain: STSSTTLKSLKIGLIPGDGIGREVIPAGKAVLENLPAKHDLQFEFVNLDAGFELFKKTGTALPDETVDVLKKECDGALFGAVSSPTTKVAGYSSPIVALRKKLGLYANVRPVKSVEGIGRPVDMVIVRENTEDLYIKEERVYKKEDGTKVAEAIKRITETASTRIAKMAYEIALQREAVRKGTSGKQLHEKPSVTVTHKSNVLSQSDGLFRETCRAVYDANANEYGGIEYKEQIVDSMVYRMFREPEIFDVVVAPNLYGDILSDGAAALVGSLGVVPSANVGDNFAIGEPCHGSAPDIEGKGISNPVATIRSTALMLEFMGYPEAAATIYQAVDANLAEDKIKTPDLGGNSTTQEVIDDIIRRF
The term Km denotes the concentration of substrate that gives half-maximal velocity. As for B1, the Km in series [1] stood at 74 µM.

B2: recombinant homoaconitase (HA) (Candida albicans SC5314) (protein)
chain: MMLRFRSFSTTTHLLRGQNLTEKIVQKYAVGLQPSSKKVYSGDYVTIKPAHCMSHDNSWPVATKFMNLGASKVKDNRQIVCTLDHDVQNKSEQNLTKYTNIEKFAKSQGIDFYPAGRGIGHQIMIEEGYAFPLNLTVASDSHSNTYGGIGALGTPIVRTDAASIWATGQTWWQIPPVAKVELIGQLPKGVTGKDIIVALCGIFNNDEVLNHAIEFVGDDAISKLPIDYRLTIANMTTEWGALSGLFPVDETLVEFYQNRLKKLNKPDHPRINNQTIDQLINNKLTSDNDAVYAKHLQIDLSSLSPYISGPNSVKISNSLYDLSQQNIAINKAYLVSCTNSRLSDIQAAADIIKGHKVNPNVEFYVAAASSLVQKDAEQSGAWQTILDAGAKPLPAGCGPCIGLGTGLLKDGEVGISATNRNFKGRMGSKDALAYLASPEVVAASAVLGKIGGPEELNGEPVKQAPRIIKSIETESNSANEAESTSEEASGSIDILPGFPQSIEGELILCNADNINTDGIYPGKYTYQDDITKEQMAKVCMENYDSQFYSKTKPGDIIISGYNFGTGSSREQAATCILARGMKLIVAGSFGNIFSRNSINNALLTLEIPDLINKLRQQYEGNDELTIRTGWFLKWDVTKAQVTVVDGDDNLILTQKVGELGTNLQDIIVKGGLEGWVKSELKTNQ
notes: made in house
With B2, the Km in series [2] turned out to be 1500 µM.
